The supplement of paper PMC10567573

B1: TMEM175 (parent)
chain: QTSAFARQPRDELERVRVSCTIIF
B2: EHMT1 (parent)
chain: SARQGELQKVLLMLVDGIDPNFKM

Variants of: B1
Experiment: protein stability index of a GFP-peptide fusion (GPS, HEK-293T) (PSI 1-6); higher = more stable
Settings: c terminus: a fixed tail appended
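Further: lentivirally expressed fusions sorted by FACS into six bins by GFP to DsRed ratio, PSI derived from sequencing read proportions per bin multiplied by bin number.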

Protein stability index, by site and new letter:
A4: F 1.88 | S 3.97 | R 2.89 | K 1.26 | P 3.2 | G 2.95 | L 3.63 | E 2.9 | H 1.46 | I 1.96 | N 1.5 | D 3.36 | Y 1.46 | M 3.56 | V 1.7 | T 2.06
V16: I 2.63 | F 2 | E 2.22 | A 2.06 | G 1.14 | Y 2.81 | M 1.16 | D 1.98 | T 1.4 | H 2.65 | S 1.83 | W 2.56 | R 2.47 | L 1.91 | K 1.97 | N 2.04 | Q 2.53
A6: K 2.11 | W 2.34 | Y 2.68 | M 1.74 | C 3.04 | L 1.6 | V 2.9 | N 2.57 | F 1.36 | H 2.09 | T 1.44 | E 3.06 | R 1.84 | D 2.35
R7: E 1.91 | L 2.48 | M 2.66 | T 2.68 | K 2.08 | D 2.01 | I 2.42 | Y 1.58 | Q 1.6 | V 1.33 | F 2.53 | C 3.01 | A 2.46
Q8: I 2.01 | C 3.32 | A 1.48 | H 2.68 | R 3.17 | P 2.1 | T 2 | D 2.12 | W 2.58 | Y 2.14 | V 1.56 | M 3.58 | L 1.87 | G 4.14
V18: D 2.02 | Q 1.71 | N 2.35 | L 1.08 | S 2.23 | K 2.41 | M 1.88 | I 2.49 | P 2.47 | W 2.19 | Y 2.11 | G 1.79 | H 1.83 | T 2.2 | A 2.53 | C 1.82 | E 2.31 | F 2.17 | R 1.57
R15: W 3.37 | P 2.19 | Q 1.77 | A 3.73 | T 5.08 | F 2.54 | N 4.18 | K 3.37 | E 3.77 | L 3.73 | V 2.81 | I 3.42 | M 2.04 | G 3.8 | D 1.79 | Y 3.62 | C 1.88
Q1: N 3.4 | G 3.41 | L 1.38 | K 2.24 | D 1.63 | H 1.6 | A 3.97 | Y 3.11 | F 3.36 | P 2.32 | S 2.17 | E 2.25 | M 1.64
T2: Y 3.16 | F 2.49 | Q 4.14 | A 1.83 | M 1.89 | D 3.37 | S 3.61 | H 2.22 | L 1.55 | N 1.66 | W 3.26
L13: T 1.99 | S 2 | Y 4.09 | E 1.83 | K 1.64 | R 2.76 | N 1.55 | P 2.37 | D 1.3 | G 1.59 | V 2.53 | W 2.89 | I 1.54 | F 3.31 | C 3.23 | M 2.23 | Q 1.27
D11: N 3.52 | Y 3.09 | Q 2.47 | G 3.67 | V 2.38 | C 2.58 | T 4.12 | L 3.31 | A 3.09 | E 2.73 | S 2.81 | K 3.33 | P 2.6
S3: K 2.62 | F 2.04 | Y 2.69 | N 2.02 | I 2.13 | R 1.06 | G 1.91 | H 1.69 | E 2.02 | M 3.41 | Q 2.21 | L 1.05 | A 3.58 | W 2.24
R10: D 2.48 | A 2.28 | Y 2.65 | C 2.79 | I 2.06 | K 3.68 | Q 3.27 | W 3.68 | M 2.35 | T 2.48 | E 2.31 | P 2.87 | N 2.57 | H 2.4 | S 2.4 | V 2.03
R17: C 1.28 | A 3.04 | M 2.91 | N 3.17 | S 2.35 | E 2.92 | D 2.58 | G 2.53 | F 2 | H 2.73 | L 4.15 | Q 3.06 | I 2.2 | Y 4.15 | P 2.09
P9: N 2.67 | G 2.81 | T 2.67 | S 1.15 | Q 1.71 | F 2.38 | K 1.03 | V 3.32 | I 2.44 | R 1.91 | D 2.03 | E 3.41 | Y 2.83 | H 2.88 | W 2.31 | L 2.43
E12: H 2.73 | I 2.56 | F 1.76 | T 2.95 | S 2.72 | C 2.24 | D 2.16 | A 3.94 | Q 1.9 | M 1.89 | W 1.9 | Y 2.81 | K 2.07
F5: E 1.91 | R 1.38 | L 1.9 | D 1.69 | C 4.13 | A 1.75 | V 2.15 | N 1.65 | K 1.34 | T 2.01 | H 1.48 | Y 2.54 | Q 2.27 | I 1.72 | S 1.94 | P 2.48 | M 2.25
E14: F 3.09 | P 3.5 | A 1.67 | Q 2.93 | R 2.03 | W 2.96 | Y 3.27 | D 1.84 | N 1.1 | V 2.86

Variants of: B2
Experiment: as above
Settings: c terminus: a fixed tail appended

Protein stability index: each site, then its substitutions
N21: L 3.55 | K 1.96 | I 1.93 | Q 1.41 | Y 2.93 | G 3.57 | D 1.41 | M 2.24 | R 1.26 | H 1.97 | T 1.98 | W 3.96
M24: C 2.05 | D 3.33 | K 2.42 | Y 1.9 | E 2.18 | A 2.04 | I 1.77 | T 1.42 | H 1.19 | P 2.6 | G 1.23 | L 1.93 | N 1.48 | R 1.8 | Q 1.84
F22: K 1.89 | Q 1.76 | S 2.71 | W 2.49 | A 1.65 | M 1.13 | R 1.52 | L 1.83 | H 1.56 | G 2.71 | T 2.21 | Y 1.39 | C 1.82 | N 1.56 | I 2.09 | V 1.18 | E 2.69 | D 2.01 | P 1.76
K23: V 2.81 | Y 1.94 | Q 2.39 | H 2.78 | P 2.18 | G 1.19 | A 2.4 | D 2.17 | I 1.59 | T 2.02 | N 1.3 | E 1.21 | L 1.88 | R 2.82
P20: H 1.75 | D 1.43 | K 1.76 | G 1.09 | F 2.59 | M 2.91 | R 1.5 | T 1.27 | Q 1.83
